Results on one molecule are retold here after US7164008B2, “Isolated complexes of endotoxin and MD-2” (priority 2003, dated 2007).

One assay deals with T1, TLR4 (Homo sapiens, UniProt O00206+Q9Y6Y9).
T1 construct: host or cells: HEK293 stably transfected with TLR4 (HEK/TLR4)
The experiment in a line: Cell association of [^3H]-LOS forms with HEK/TLR4 cells (liquid scintillation). In kind it is cell-based. The following applies: [^3H]-LOS-MD-2 0.75 ng/ml, HEK/TLR4 overnight. On the procedure: FIG. 3 depicts delivery of [^3H]-LOS-MD-2 but not [^3H]-LOSagg or [^3H]-LOS-sCD14 to HEK/TLR4. HEK (□) or HEK/TLR4 (▪) cells were incubated with [^3H]-LOS (0.75 ng/ml) in the form of LOSagg, LOS-sCD14, or LOS-MD-2. After overnight incubation at 37° C., cells were washed and lysed as described in Methods. The amount of [^3H]-LOS associated with the cells was measured by liquid scintillation spectroscopy. Results are from one experiment in duplicate, representative of three similar experiments.
FIG. 4 depicts the effects of added MD-2 on activation of HEK/TLR4 by [^3H]-LOS-MD-2 and delivery of [^3H]-LOS-MD-2 to HEK/TLR4. […] After overnight incubation, extracellular accumulation of IL-8 was measured. […] Column fractions were analyzed for [^14C]-LOS by liquid scintillation spectroscopy. […] The amount of radioactivity associated with the cells was determined by liquid scintillation spectroscopy. No radioactivity was associated with parental cells.
HEK or HEK/TLR4 cells were grown to confluency in 6 well plates, washed twice with warm PBS, and [^3H]-LOS aggregates or [^3H]-LOS-protein complexes+/−indicated supplements were incubated overnight at 37° C., 5% CO2, and 95% humidity in DMEM, 0.1% HSA with the supplements indicated in the legends to FIGS. 3 and 4. […] The amount of radioactivity associated with the cells was determined by liquid scintillation spectroscopy. Total recovery of radioactivity was >90%.

The subject of the next assay is human airway epithelia. The assay can be described thus: Endotoxin responsiveness of primary human airway epithelia (HBD-2 mRNA real time PCR, NF-κB-luciferase). In kind it is cell-based. The following applies: N. meningitidis LOS-sCD14 5 ng LOS/ml, 24 hr, HBD-2 real time PCR. Here is the method: FIG. 6 depicts endotoxin responsiveness of well-differentiated primary cultures of human airway epithelia. Polarized epithelia were treated with NTHi LOS (100 ng/ml), sCD14 (100 ng/ml) and LBP (250 ng/ml) by apical application in a 50 μl volume. Twenty-four hours later, epithelia were harvested and analyzed for HBD-2 mRNA expression by real time PCR. As depicted in FIG. 6A, apical stimulation of airway epithelia with NTHi LOS induced little change in HBD-2 MRNA expression (2 epithelia/trial, n=3 different donors, * indicates p<0.05). In contrast, IL-1β markedly induces HBD-2 mRNA. FIG. 6B depicts the polarity of epithelial responses to IL-1β and NTHi LOS. […]
FIG. 9 depicts the effects of MD-2 complementation on endotoxin responsiveness in human airway epithelia. […] Fold increase in HBD-2 mRNA expression were quantified by real time PCR. […] NF-κB-luciferase activity was measured 24 hr following endotoxin treatment (n=5 epithelia/condition, * indicates p<0.05). […] 24 hr after endotoxin treatment, HBD-2 expression was quantified by real time PCR. […]
Well differentiated human airway epithelia were treated with N. meningitidis LOS-sCD14 (5 ng LOS/ml), with or without the addition of cell culture supernatants containing rMD-2. […] HBD-2 expression was quantified by real time PCR. […]
Real-time PCR was employed to detect human β-defensin-2 and MD-2 and to quantify changes in expression. […]
Background: Quantitative PCR measures a nucleic acid by following its amplification.

T1 sequence (O00206 24-839, one chain of several): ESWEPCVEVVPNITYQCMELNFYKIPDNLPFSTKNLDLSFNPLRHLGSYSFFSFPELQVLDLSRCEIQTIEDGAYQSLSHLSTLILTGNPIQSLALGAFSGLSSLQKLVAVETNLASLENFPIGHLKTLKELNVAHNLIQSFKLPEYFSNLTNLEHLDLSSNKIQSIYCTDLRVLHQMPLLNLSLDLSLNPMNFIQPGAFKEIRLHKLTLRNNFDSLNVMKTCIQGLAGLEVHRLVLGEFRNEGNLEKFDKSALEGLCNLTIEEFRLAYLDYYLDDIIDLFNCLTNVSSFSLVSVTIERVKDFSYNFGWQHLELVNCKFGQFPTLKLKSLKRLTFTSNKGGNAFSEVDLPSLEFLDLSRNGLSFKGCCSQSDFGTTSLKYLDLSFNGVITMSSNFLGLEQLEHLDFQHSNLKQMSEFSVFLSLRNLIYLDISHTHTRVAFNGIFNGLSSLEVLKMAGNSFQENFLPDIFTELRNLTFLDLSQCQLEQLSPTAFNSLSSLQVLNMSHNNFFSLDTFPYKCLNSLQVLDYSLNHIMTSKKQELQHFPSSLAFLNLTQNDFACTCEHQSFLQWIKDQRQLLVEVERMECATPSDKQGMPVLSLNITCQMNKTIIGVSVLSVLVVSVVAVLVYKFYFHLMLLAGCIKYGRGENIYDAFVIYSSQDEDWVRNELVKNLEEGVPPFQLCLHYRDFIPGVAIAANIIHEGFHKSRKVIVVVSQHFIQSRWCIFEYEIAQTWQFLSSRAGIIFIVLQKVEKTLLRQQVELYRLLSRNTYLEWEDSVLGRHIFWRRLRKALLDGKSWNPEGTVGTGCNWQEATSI

B1: wt MD-2: soluble polyhistidine-tagged recombinant wild-type MD-2 in conditioned insect cell culture medium (protein)
chain: QKQYWVCNSSDASISYTYCDKMQYPISINVNPCIELKRSKGLLHIFYIPRRDLKQLYFNLYITVNTMNLPKRKEVICRGSDDDYSFCRALKGETVNTTISFSFKGIKFSKGKYKCVVEAISGSPEEMLFCLEFVILHQPNSNHHHHHH
For the molecule B1, the “effect of excess MD-2 on TLR4-dependent cell association of [^3H]-LOS-MD-2” value with TLR4 was “blocked”. In addition, in the assay with human airway epithelia, the “increase of response of human airway epithelial cultures to LOS-sCD14” value is no less than 100 fold.
